Each block holds one substance with its values, some of them ahead of it.
What was measured:
[1] = target: SUMO-tagged WIPI2b^Δ (residues 13 to 362 without 265 to 297) (human); assay: SEC-MALS
[2] = target: SUMO-tagged WIPI2b^Δ (residues 13 to 362 without 265 to 297) (human); assay: ITC

Trx-tagged ATG16L1(78 to 247), sequence (Q676U5 78-247): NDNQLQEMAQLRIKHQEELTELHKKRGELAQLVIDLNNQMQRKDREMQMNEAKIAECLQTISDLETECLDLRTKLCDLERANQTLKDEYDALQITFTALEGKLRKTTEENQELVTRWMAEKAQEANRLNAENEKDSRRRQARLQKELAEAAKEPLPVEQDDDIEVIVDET
Trx-tagged ATG16L1(78 to 206), sequence (Q676U5 78-206): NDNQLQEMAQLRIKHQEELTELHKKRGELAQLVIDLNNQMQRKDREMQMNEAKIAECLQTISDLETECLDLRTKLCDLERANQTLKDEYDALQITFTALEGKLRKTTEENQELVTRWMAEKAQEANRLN
Trx-tagged ATG16L1(207 to 247), sequence (Q676U5 207-247): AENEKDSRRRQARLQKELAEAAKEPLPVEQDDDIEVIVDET
ATG16L1(124 to 247), sequence (Q676U5 124-247): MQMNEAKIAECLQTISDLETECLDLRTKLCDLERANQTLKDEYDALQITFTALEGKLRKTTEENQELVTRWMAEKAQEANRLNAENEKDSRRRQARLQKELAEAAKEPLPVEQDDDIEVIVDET

stoichiometry N (ATG16L1 chains per WIPI2b^Δ (2:2)) [1]: 1
Substance: ATG16L1(124 to 247) (from UniProt Q676U5 124-247) (domain or fragment)

Kd [2]: 6.88 µM
Substance: Trx-tagged ATG16L1(78 to 206) (from UniProt Q676U5 78-206) (domain or fragment)

KD of the WBS1 site (two-site fit) [2]: 2.88 µM
KD of the WBS2 site (two-site fit) [2]: 0.41 µM
Substance: Trx-tagged ATG16L1(78 to 247) (from UniProt Q676U5 78-247) (domain or fragment)

Kd [2]: 3.93 µM
Substance: Trx-tagged ATG16L1(207 to 247) (from UniProt Q676U5 207-247) (domain or fragment)
